The data set in a line: self-splicing fitness, log relative to wild type (ln ratio); higher = more splicing; Tetrahymena group I intron in knt gene, E. coli kanamycin selection, DiMSum; sequences stand for … in CUCUCU…GGAGGGAAAAGUUAUCAGGCAUGCACCUGGUAGCUAGUCUUUAAACCAAUAGAUUGCAUCGGUUUAAAAGGCAAGACCGUCAAAUUGCGGGAAAGGGGUCAACAGCCGUUCAGUACCAAGUCUCAGGGGAAACUUUGAGAUGGCCUUGCAAAGGGUAUGGUAAUAAGCUGACGGACAUGGUCCUAACCACGCAGCCAAGUCCUAAGUCAACAGAUCUUCUGUUGAUAUGGAUGCAGUUCACAGACUAAAUGUCGGUCGGGGAAGAUGUAUUCUUCUCAUAAGAUAUAGUCGGACCUCUCCUUAAUGGGAGCUAGCGGAUGAAGUGAUGCAACACUGGAGCCGCUGGGAACUAAUUUGUAUGCGAAAGUAUAUUGAUUAGUUUUGGAGUACUCGUGGUCG
The method, boiled down:
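Six replicate transformations of E. coli BL21(DE3) with a pET-22b(+) library were grown overnight at 37°C or 30°C. The library randomised all eight P1ex-region intron nucleotides, the intron lying in the knt kanamycin-resistance gene, and plates were LB agar with or without 25 μg/mL kanamycin plus 100 μg/mL carbenicillin, 50 μM IPTG and 0.2% rhamnose. Pooled colonies were amplicon-sequenced on an Illumina HiSeq 2500, and fitness is the DiMSum error-weighted combination of wild-type-normalised replicate fold changes, kanamycin versus none.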

Consider 76 sequences from the supplement of paper PMC7877785.

± gives the uncertainty stated by the source.

For UAUUAGCAAUAUUACGUUAG, the “self-splicing fitness (ln)” value is, setting by setting: (30 °C) -2.33 ± 0.18; (37 °C) -1.62 ± 0.17.
For AAGGAGCAAUAUUACGCGAG, in that order: -2.86 ± 0.19 and -2.23 ± 0.19.
The matching figures for AGGUAGCAAUAUUACGUAGC: -2.916 ± 0.021 and -1.94 ± 0.036.
For ACGGAGCAAUAUUACGCACG, in that order: -3.77 ± 0.35 and -2.71 ± 0.37.
Consider AGACAGCAAUAUUACGACCA, for which the “self-splicing fitness (ln)” value was -0.623 ± 0.11 (30 °C) and -0.823 ± 0.13 (37 °C).
Turning to GUACAGCAAUAUUACGGGUC, the “self-splicing fitness (ln)” value by setting is: (30 °C) -4.33 ± 0.31; (37 °C) -2.79 ± 0.33.
As to UGGCAGCAAUAUUACGCGCU, where the note is “37 °C”, the “self-splicing fitness (ln)” value was -2.45 ± 0.49.
Consider AAGUAGCAAUAUUACGGGCG, for which the “self-splicing fitness (ln)” value by setting is: (30 °C) -1.71 ± 0.11; (37 °C) -1.53 ± 0.14.
For ACCGAGCAAUAUUACGAUAA, in that order: -3.72 ± 0.23 and -2.01 ± 0.2.
For the sequence GUAGAGCAAUAUUACGGAAC, where the note is “30 °C”, the “self-splicing fitness (ln)” value is -1.59 ± 0.3.
Turning to UCAGAGCAAUAUUACGUAUC, the “self-splicing fitness (ln)” value runs as follows: (30 °C) -2.86 ± 0.36; (37 °C) -1.41 ± 0.31.
For ACGGAGCAAUAUUACGGCCG, in that order: -1.98 ± 0.16 and -2.03 ± 0.28.
The matching figures for ACAUAGCAAUAUUACGUCAC: -3.32 ± 0.18 and -2.93 ± 0.28.
Regarding GAGAAGCAAUAUUACGUAAC, the “self-splicing fitness (ln)” value by setting is: (30 °C) -1.62 ± 0.11; (37 °C) -0.536 ± 0.12.
For ACAAAGCAAUAUUACGGUUG, in that order: -2.44 ± 0.07 and -1.89 ± 0.09.
For AAGCAGCAAUAUUACGUCGC, in that order: -2.95 ± 0.19 and -2.51 ± 0.31.
Turning to UCACAGCAAUAUUACGUGUU, the “self-splicing fitness (ln)” value runs as follows: (30 °C) -3.9 ± 0.13; (37 °C) -2.46 ± 0.11.
The matching figures for UUGAAGCAAUAUUACGAAUC: -3.58 ± 0.37 and -2.12 ± 0.32.
The matching figures for CGGUAGCAAUAUUACGAGCA: -3.2 ± 0.31 and -0.781 ± 0.17.
For AGUGAGCAAUAUUACGCCCA, in that order: -3.28 ± 0.46 and -2.42 ± 0.37.
As for GUGCAGCAAUAUUACGCGCU, the “self-splicing fitness (ln)” value runs as follows: (30 °C) -3.16 ± 0.48; (37 °C) -1.77 ± 0.36.
Turning to CCGGAGCAAUAUUACGCACU, the “self-splicing fitness (ln)” value (37 °C) is -2.69 ± 0.48.
With UUCAAGCAAUAUUACGGUGA, the “self-splicing fitness (ln)” value by setting is: (30 °C) -0.763 ± 0.093; (37 °C) 0.168 ± 0.092.
For GUCAAGCAAUAUUACGGCGA, in that order: -2.1 ± 0.14 and -0.0443 ± 0.12.
As for CAUCAGCAAUAUUACGGAGC, the “self-splicing fitness (ln)” value is -3.44 ± 0.31 (30 °C) and -2.1 ± 0.31 (37 °C).
For AACCAGCAAUAUUACGCUUG, in that order: -1.94 ± 0.089 and -1.07 ± 0.11.
For the sequence AUCGAGCAAUAUUACGACGC, the “self-splicing fitness (ln)” value reads like this: (30 °C) -1.28 ± 0.094; (37 °C) -0.674 ± 0.12.
The matching figures for UUCCAGCAAUAUUACGGCGU: -1.42 ± 0.079 and -1.19 ± 0.091.
For UCCUAGCAAUAUUACGAAAU, in that order: -3.19 ± 0.47 and -0.807 ± 0.42.
The matching figures for UCCAAGCAAUAUUACGGCUU: -3.94 ± 0.4 and -1.53 ± 0.25.
Turning to ACCAAGCAAUAUUACGAGGA, the “self-splicing fitness (ln)” value (30 °C) is -3.15 ± 0.19 and the “self-splicing fitness (ln)” value (37 °C) is -2.7 ± 0.16.
The matching figures for GCGAAGCAAUAUUACGAUCG: -2.49 ± 0.31 and -0.964 ± 0.28.
On to GCUAAGCAAUAUUACGCCAU, for which the “self-splicing fitness (ln)” value (30 °C) was -2.71 ± 0.2 and the “self-splicing fitness (ln)” value (37 °C) was -3.21 ± 0.27.
In the case of CACCAGCAAUAUUACGUUUG, the “self-splicing fitness (ln)” value is, setting by setting: (30 °C) -0.595 ± 0.043; (37 °C) -0.00269 ± 0.064.
As for CUCAAGCAAUAUUACGUUAC, the “self-splicing fitness (ln)” value is -4.46 ± 0.31 (30 °C) and -3.47 ± 0.29 (37 °C).
With AAAUAGCAAUAUUACGGGGU, the “self-splicing fitness (ln)” value runs as follows: (30 °C) -3.27 ± 0.17; (37 °C) -2.12 ± 0.19.
The matching figures for GGCGAGCAAUAUUACGGAAU: -2.91 ± 0.19 and -1.87 ± 0.21.
For CAUGAGCAAUAUUACGACUC, in that order: -3.85 ± 0.3 and -3.38 ± 0.39.
For CUACAGCAAUAUUACGUCAU, in that order: -4.33 ± 0.22 and -3.72 ± 0.19.
Regarding AAAUAGCAAUAUUACGCAGU, the “self-splicing fitness (ln)” value was -3.79 ± 0.2 (30 °C) and -1.57 ± 0.14 (37 °C).
For ACGGAGCAAUAUUACGGCUU, the “self-splicing fitness (ln)” value (30 °C) is -3.11 ± 0.4.
Turning to ACCGAGCAAUAUUACGAUAU, the “self-splicing fitness (ln)” value is, setting by setting: (30 °C) -3.68 ± 0.18; (37 °C) -1.54 ± 0.14.
The matching figures for AAGGAGCAAUAUUACGCUCG: -0.454 ± 0.13 and -0.814 ± 0.17.
For AUUGAGCAAUAUUACGCUUA, in that order: -2.75 ± 0.16 and -1.02 ± 0.13.
For CGCAAGCAAUAUUACGGCGA, in that order: -1.91 ± 0.24 and -0.653 ± 0.17.
With UUCAAGCAAUAUUACGCGGG, the “self-splicing fitness (ln)” value is, setting by setting: (30 °C) -3.35 ± 0.28; (37 °C) -1.95 ± 0.21.
For CGUUAGCAAUAUUACGUAUU, in that order: -3.02 ± 0.18 and -2.64 ± 0.19.
On to CUCGAGCAAUAUUACGCGAA, for which the “self-splicing fitness (ln)” value is -3.3 ± 0.34 (30 °C) and -2.41 ± 0.37 (37 °C).
For AGGCAGCAAUAUUACGCUAG, in that order: -3.53 ± 0.25 and -3.04 ± 0.27.
The matching figures for GAACAGCAAUAUUACGUUGA: -1.47 ± 0.066 and -1.02 ± 0.077.
For the sequence GCACAGCAAUAUUACGAGAC, the “self-splicing fitness (ln)” value runs as follows: (30 °C) -2.51 ± 0.17; (37 °C) -2.06 ± 0.18.
For AGAGAGCAAUAUUACGACGU, the “self-splicing fitness (ln)” value by setting is: (30 °C) -1.84 ± 0.15; (37 °C) -0.382 ± 0.15.
For GCUCAGCAAUAUUACGAACG, in that order: -0.679 ± 0.15 and -0.216 ± 0.17.
The matching figures for GGUAAGCAAUAUUACGUCCU: -1.17 ± 0.2 and -0.999 ± 0.23.
For AAUCAGCAAUAUUACGGCAU, in that order: -0.109 ± 0.045 and 0.27 ± 0.059.
Turning to ACACAGCAAUAUUACGGCUG, the “self-splicing fitness (ln)” value by setting is: (30 °C) -2.88 ± 0.12; (37 °C) -1.42 ± 0.1.
As for UCGUAGCAAUAUUACGGUGG, the “self-splicing fitness (ln)” value is -2.84 ± 0.098 (30 °C) and -1.31 ± 0.086 (37 °C).
The matching figures for ACCUAGCAAUAUUACGCACC: -1.24 ± 0.14 and 0.276 ± 0.16.
Take UAUUAGCAAUAUUACGCGCA: the “self-splicing fitness (ln)” value (30 °C) is -0.12 ± 0.13 and the “self-splicing fitness (ln)” value (37 °C) turned out to be 0.163 ± 0.18.
For AAUCAGCAAUAUUACGCUAC, in that order: -2.83 ± 0.23 and -2.22 ± 0.27.
Turning to CAAUAGCAAUAUUACGCGCA, the “self-splicing fitness (ln)” value runs as follows: (30 °C) -2.68 ± 0.19; (37 °C) -1.7 ± 0.18.
For CUUAAGCAAUAUUACGAAUG, in that order: -0.541 ± 0.092 and -0.0976 ± 0.12.
On to GUGCAGCAAUAUUACGGUAG, for which the “self-splicing fitness (ln)” value (30 °C) was -1.05 ± 0.057 and the “self-splicing fitness (ln)” value (37 °C) was -0.428 ± 0.074.
In the case of GCGCAGCAAUAUUACGAUGC, the “self-splicing fitness (ln)” value (30 °C) was -2.63 ± 0.17 and the “self-splicing fitness (ln)” value (37 °C) was -0.824 ± 0.17.
As to CAUAAGCAAUAUUACGUGCG, the “self-splicing fitness (ln)” value was -1.15 ± 0.079 (30 °C) and -0.792 ± 0.098 (37 °C).
Consider ACAUAGCAAUAUUACGGUUA, for which the “self-splicing fitness (ln)” value is -1.05 ± 0.098 (30 °C) and -0.751 ± 0.095 (37 °C).
The matching figures for CACUAGCAAUAUUACGGCAU: -4.16 ± 0.19 and -1.55 ± 0.14.
Consider UGUGAGCAAUAUUACGUGAA, for which the “self-splicing fitness (ln)” value (37 °C) is -1.69 ± 0.23.
In the case of AAUUAGCAAUAUUACGCAAA, the “self-splicing fitness (ln)” value (30 °C) was -1.96 ± 0.18 and the “self-splicing fitness (ln)” value (37 °C) turned out to be 0.00784 ± 0.17.
As to CAUCAGCAAUAUUACGCACA, the “self-splicing fitness (ln)” value runs as follows: (30 °C) -0.992 ± 0.098; (37 °C) -1.21 ± 0.11.
Turning to CAUAAGCAAUAUUACGUGGA, the “self-splicing fitness (ln)” value by setting is: (30 °C) -3.5 ± 0.22; (37 °C) -2.53 ± 0.21.
For CGCCAGCAAUAUUACGUGAU, in that order: -3.42 ± 0.088 and -2.27 ± 0.11.
For AGGAAGCAAUAUUACGUCUC, the “self-splicing fitness (ln)” value runs as follows: (30 °C) -2.91 ± 0.18; (37 °C) -1.48 ± 0.21.
The matching figures for CACUAGCAAUAUUACGCUAA: -3.33 ± 0.3 and -1.75 ± 0.19.
For CGUAAGCAAUAUUACGUUCA, in that order: -1.64 ± 0.14 and -0.74 ± 0.13.
As to GGCUAGCAAUAUUACGGAAA, the “self-splicing fitness (ln)” value is -2.79 ± 0.41 (30 °C) and -1.92 ± 0.29 (37 °C).
